For experiment [1], the target named is T1, endogenous calnexin (UniProt P27824 21-592).
T1 construct: Endogenous endoplasmic reticulum protein used as a control
T1 sequence (looked up): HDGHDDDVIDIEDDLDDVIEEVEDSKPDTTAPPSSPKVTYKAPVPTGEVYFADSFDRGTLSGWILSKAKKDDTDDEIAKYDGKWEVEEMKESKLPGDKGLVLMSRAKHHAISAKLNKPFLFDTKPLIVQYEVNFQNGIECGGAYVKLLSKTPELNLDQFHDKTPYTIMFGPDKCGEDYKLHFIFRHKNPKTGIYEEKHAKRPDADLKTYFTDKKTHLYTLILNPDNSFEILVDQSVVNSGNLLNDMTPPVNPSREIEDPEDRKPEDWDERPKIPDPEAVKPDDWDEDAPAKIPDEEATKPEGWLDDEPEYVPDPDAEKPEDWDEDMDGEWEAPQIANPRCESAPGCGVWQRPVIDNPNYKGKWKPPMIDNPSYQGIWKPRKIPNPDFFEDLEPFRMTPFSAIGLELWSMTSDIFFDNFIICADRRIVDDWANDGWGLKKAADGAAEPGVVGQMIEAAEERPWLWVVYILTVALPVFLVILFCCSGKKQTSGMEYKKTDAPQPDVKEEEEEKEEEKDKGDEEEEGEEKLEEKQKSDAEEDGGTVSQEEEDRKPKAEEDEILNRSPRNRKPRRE
Nature of the experiment: co-immunoprecipitation.

Experiment [2] concerns the target wild type PS1 (wtPS1) holoprotein (human, UniProt P49768 1-467). Nature of the experiment: co-immunoprecipitation with anti-PS1 loop or N-terminus antibodies, Western blot. Here is the method:
Co-immunoprecipitation and glycerol velocity gradient fractionation were performed as previously described in Yu et al., 1998, J.Biol.Chem. 273:16470-16475. Immunoprecipitations were performed on cell lysates 48 hours after transient transfections. Total proteins (2 mg/ml) were extracted from cultured cells or brain tissue using a lysis buffer (0.2% NP-40, 0.5% Triton X-100, 50 mM Tris-HCl [pH7.6], 150 mM NaCl, 2 mM EDTA, 2 mM PMSF, […] each of aprotinin, leupeptin, pepstatin). […] New York, Cold Spring Harbor Laboratory Press. Protein A Sepharose was subsequently added to the antibody-antigen complex and incubated for 2 hours at 4° C. The beads were washed four times with a washing buffer (0.2% NP-40, 50 mM Tris-HCl[pH7.6], 150 mM NaCl, 2 mM EDTA). IP products were resolved by SDS-PAGE and investigated for the co-immunoprecipitated partners with the corresponding antibody and detection with ECL (Amersham). […]
Western blots of anti-PS 1 immunoprecipitates from PS1 transfected HEK293 cells were examined for the presence of other arm proteins expressed endogenously in HEK293 cells. Endogenous β-catenin, but not endogenous α-catenin, γ-catenin, or calnexin were detected in Western blots of immunoprecipitation products from HEK293 cells stably transfected with PS1, using either antibodies to PS1 cytoplasmic loop or to the PS1 N-terminus.
In general terms: In western blotting, separated proteins are transferred to a membrane and probed.

The source of these data is patent US20020127541A1 (GOVERNING COUNCIL OF THE UNIVERSITY OF TORONTO, published 2002).

B1: Myc-tagged hNPRAP528-1084 (other, human)
chain: ALKMPIIQDALAVLTNAVIIPHSGWENSPLQDDRKIQLHSSQVLRNATGCLRNVSSAGEEARRRMRECDGLTDALLYVIQSALGSSEIDSKTVENCVCILRNLSYRLAAETSQGQHMGTDELDGLLCGEANGKDAESSGCWGKKKKKKKSQDQWDGVGPLPDCAEPPKGIQMLWHPSIVKPYLTLLSECSNPDTLEGAAGALQNLAAGSWKWSVYIRAAVRKEKGLPILVELLRIDNDRVVCAVATALRNMALDVRNKELIGKYAMRDLVHRLPGGNNSNNTASKAMSDDTVTAVCCTLHEVITKNMENAKALRDAGGIEKLVGISKSKGDKHSPKVVKAASQVLNSMWQYRDLRSLYKKDGWSQYHFVASSSTIERDRQRPYSSSRTPSISPVRVSPNNRSASAPASPREMISLKERKTDYECTGSNATYHGGKGEHTSRKDAMTAQNTGISTLYRNSYGAPAEDIKHNQVSAQPVPQEPSRKDYETYQPFQNSTRNYDESFFEDQVHHRPPASEYTMHLGLKSTGNYVDFYSAARPYSELNYETSHYPASPDSWV
notes: Transiently expressed in HEK293 cells; also called myc-hNPRAP
As to B1, the binding result in experiment [1] is given as “no binding”.

B2: endogenous α-catenin (other)
chain: TAVHAGNINFKWDPKSLEIRTLAVERLLEPLVTQVTTLVNTNSKGPSNKKRGRSKKAHVLAASVEQATENFLEKGDKIAKESQFLKEELVAAVEDVRKQGDLMKAAAGEFADDPCSSVKRGNMVRAARALLSAVTRLLILADMADVYKLLVQLKVVEDGILKLRNAGNEQDLGIQYKALKPEVDKLNIMAAKRQQELKDVGHRDQMAAARGILQKNVPILYTASQACLQHPDVAAYKANRDLIYKQLQQAVTGISNAAQATASDDASQHQGGGGGELAYALNNFDKQIIVDPLSFSEERFRPSLEERLESIISGAALMADSSCTRDDRRERIVAECNAVRQALQDLLSEYMGNAGRKERSDALNSAIDKMTKKTRDLRRQLRKAVMDHVSDSFLETNVPLLVLIEAAKNGNEKEVKEYAQVFREHANKLIEVANLACSISNNEEGVKLVRMSASQLEALCPQVINAALALAAKPQSKLAQENMDLFKEQWEKQVRVLTDAVDDITSIDDFLAVSENHILEDVNKCVIALQEKDVDGLDRTAGAIRGRAARVIHVVTSEMDNYEPGVYTEKVLEATKLLSNTVMPRFTEQVEAAVEALSSDPAQPMDENEFIDASRLVYDGIRDIRKAVLMIRTPEELDDSDFETEDFDVRSRTSVQTEDDQLIAGQSARAIMAQLPQEQKAKIAEQVASFQEEKSKLDAEVSKWDDSGNDIIVLAKQMCMIMMEMTDFTRGKGPLKNTSDVISAAKKIAEAGSRMDKLGRTIADHCPDSACKQDLLAYLQRIALYCHQLNICSKVKAEVQNLGGELVVSGVDSAMSLIQAAKNLMNAVVQTVKASYVASTKYQKSQGMASLNLPAVSWKMKAPEKKPLVKREKQDETQTKIKRASQKKHVNPVQALSEFKAMDSI
notes: Endogenous protein of HEK293 cell lysates
Consider B2, for which the binding result in experiment [2] was “no binding”.
